According to patent US20070078092A1 (CUREGENICS, published 2007):
Blank lines part the entries; values can stand above or below the binder they belong to. Square brackets hold non-standard residues; d marks the D form. Ends that are not written are not given here. * marks the point of attachment. Cholesteryloxycarbonyl = CC(C)CCC[C@@H](C)[C@H]1CC[C@H]2[C@@H]3CC=C4C[C@@H](OC(=O)*)CC[C@]4(C)[C@H]3CC[C@]12C; Lithocholoyl = C[C@H](CCC(=O)*)[C@H]1CC[C@H]2[C@@H]3CC[C@@H]4C[C@H](O)CC[C@]4(C)[C@H]3CC[C@]12C; FITC = O=C1OC2(c3ccc(O)cc3Oc3cc(O)ccc32)c2ccc(NC(=S)*)cc21; Biotin = O=C1N[C@H]2[C@H](CS[C@H]2CCCCC(=O)*)N1; hLeu = CC(C)CC[C@H](N)C(=O)O; VitB6 = vitamin B6 moiety; Orn = NCCC[C@H](N)C(=O)O; Nva = CCC[C@H](N)C(=O)O; Dap = NC[C@H](N)C(=O)O

Columns and labels:
Test in all cases: cell-based or functional assay
protein kinase B (PKB) [1] = biological target: protein kinase B (PKB)
protein kinase B (PKB) [2] = biological target: protein kinase B (PKB); remark: listed apart in the source
protein kinase A (PKA) = biological target: protein kinase A (PKA)

IC50, in vitro kinase assay PKB (protein kinase B (PKB) [1]): 0.36 µM
B1: PTR 6382 (peptide)
peptide: Cholesteryloxycarbonyl-[Orn]PR[Nva]Y[Dap][hLeu]-NH2
SMILES: CCC[C@H](NC(=O)[C@H](CCCNC(=N)N)NC(=O)[C@@H]1CCCN1C(=O)[C@H](CCCN)NC(=O)O[C@H]1CC[C@@]2(C)C(=CC[C@H]3[C@@H]4CC[C@H]([C@H](C)CCCC(C)C)[C@@]4(C)CC[C@@H]32)C1)C(=O)N[C@@H](Cc1ccc(O)cc1)C(=O)N[C@@H](CN)C(=O)N[C@@H](CCC(C)C)C(N)=O

IC50, kinase assay PKB (protein kinase B (PKB) [2]): 10 µM
Binder: {Galactopyranosyl‑O‑CO}-RPR[Nva]Y[Dap][hLeu]-NH2 [PTR 6214]

IC50, in vitro kinase assay PKB (protein kinase B (PKB) [1]): 0.2 µM
Binder: {Vitamin E‑CO‑(CH2)2‑CO}-[dK][dK][dK]RPR[Nva]Y[Dap][hLeu]-NH2 [PTR 6396]

IC50, kinase assay PKB (protein kinase B (PKB) [2]): 7 µM
Binder: {Testosterone‑yl‑O‑CO}-RPR[Nva]Y[Dap][hLeu]-NH2 [PTR 6212]

IC50, in vitro kinase assay PKB (protein kinase B (PKB) [1]): 2 µM
B2: PTR 6386 (peptide)
peptide: Cholesteryloxycarbonyl-[Orn]P[Orn][Nva]Y[Dap][hLeu]-NH2
SMILES: CCC[C@H](NC(=O)[C@H](CCCN)NC(=O)[C@@H]1CCCN1C(=O)[C@H](CCCN)NC(=O)O[C@H]1CC[C@@]2(C)C(=CC[C@H]3[C@@H]4CC[C@H]([C@H](C)CCCC(C)C)[C@@]4(C)CC[C@@H]32)C1)C(=O)N[C@@H](Cc1ccc(O)cc1)C(=O)N[C@@H](CN)C(=O)N[C@@H](CCC(C)C)C(N)=O

IC50, kinase assay PKB (protein kinase B (PKB) [2]): 2 µM
Binder: Lithocholoyl-RPR[Nva]Y[Dap][hLeu]-NH2 [PTR 6220]

IC50, in vitro kinase assay PKB (protein kinase B (PKB) [1]): 0.5 µM
B3: PTR 6402 (peptide)
peptide: Cholesteryloxycarbonyl-[dK][dK][dK]RPR[Nva]Y[Dap][hLeu]K(FITC)-NH2
SMILES: CCC[C@H](NC(=O)[C@H](CCCNC(=N)N)NC(=O)[C@@H]1CCCN1C(=O)[C@H](CCCNC(=N)N)NC(=O)[C@@H](CCCCN)NC(=O)[C@@H](CCCCN)NC(=O)[C@@H](CCCCN)NC(=O)O[C@H]1CC[C@@]2(C)C(=CC[C@H]3[C@@H]4CC[C@H]([C@H](C)CCCC(C)C)[C@@]4(C)CC[C@@H]32)C1)C(=O)N[C@@H](Cc1ccc(O)cc1)C(=O)N[C@@H](CN)C(=O)N[C@@H](CCC(C)C)C(=O)N[C@@H](CCCCNC(=S)Nc1ccc2c(c1)C(=O)OC21c2ccc(O)cc2Oc2cc(O)ccc21)C(N)=O

IC50, kinase assay PKA (protein kinase A (PKA)): 50 µM | IC50, kinase assay PKB (protein kinase B (PKB) [2]): 8 µM
Binder: Lauryl-RPR[Nva]Y[Dap][hLeu]-NH2 [PTR 6160]

IC50, in vitro kinase assay PKB (protein kinase B (PKB) [1]): 2 µM
B4: PTR 6390 (peptide)
peptide: Cholesteryloxycarbonyl-RPR[Nva]Y[Dap]-OH
SMILES: CCC[C@H](NC(=O)[C@H](CCCNC(=N)N)NC(=O)[C@@H]1CCCN1C(=O)[C@H](CCCNC(=N)N)NC(=O)O[C@H]1CC[C@@]2(C)C(=CC[C@H]3[C@@H]4CC[C@H]([C@H](C)CCCC(C)C)[C@@]4(C)CC[C@@H]32)C1)C(=O)N[C@@H](Cc1ccc(O)cc1)C(=O)N[C@@H](CN)C(=O)O

IC50, in vitro kinase assay PKB (protein kinase B (PKB) [1]): 5 µM
Binder: {Coumarin‑3‑oyl}-RPR[Nva]Y[Dap][hLeu]-NH2 [PTR 6392]

IC50, kinase assay PKA (protein kinase A (PKA)): > 100 µM | IC50, kinase assay PKB (protein kinase B (PKB) [2]): 1 µM
Binder: Biotin-RPR[Nva]Y[Dap][hLeu]-NH2 [PTR 6158]

IC50, kinase assay PKB (protein kinase B (PKB) [2]): 1 µM
Binder: VitB6-RPR[Nva]Y[Dap][hLeu] [PTR 6232]

IC50, kinase assay PKB (protein kinase B (PKB) [2]): 3 µM
Binder: {Testosterone‑yl‑O‑CO}-RPR[Nva]YA[hLeu]-NH2 [PTR 6226]

IC50, kinase assay PKB (protein kinase B (PKB) [2]): 1 µM
Binder: {VitE‑Succinate}-RPR[Nva]YA[hLeu]-NH2 [PTR 6242]

IC50, in vitro kinase assay PKB (protein kinase B (PKB) [1]): > 10 µM
B5: PTR 6384 (peptide)
peptide: H-[Orn]P[Orn][Nva]Y[Dap][hLeu]-NH2
SMILES: CCC[C@H](NC(=O)[C@H](CCCN)NC(=O)[C@@H]1CCCN1C(=O)[C@@H](N)CCCN)C(=O)N[C@@H](Cc1ccc(O)cc1)C(=O)N[C@@H](CN)C(=O)N[C@@H](CCC(C)C)C(N)=O

IC50, in vitro kinase assay PKB (protein kinase B (PKB) [1]): 10 µM
Binder: {HO‑CO‑(CH2)2‑CO}-[dK][dK][dK]RPR[Nva]Y[Dap][hLeu]-NH2 [PTR 6394]

IC50, in vitro kinase assay PKB (protein kinase B (PKB) [1]): 2 µM
B6: PTR 6388 (peptide)
peptide: Cholesteryloxycarbonyl-RP[Orn][Nva]Y[Dap][hLeu]-NH2
SMILES: CCC[C@H](NC(=O)[C@H](CCCN)NC(=O)[C@@H]1CCCN1C(=O)[C@H](CCCNC(=N)N)NC(=O)O[C@H]1CC[C@@]2(C)C(=CC[C@H]3[C@@H]4CC[C@H]([C@H](C)CCCC(C)C)[C@@]4(C)CC[C@@H]32)C1)C(=O)N[C@@H](Cc1ccc(O)cc1)C(=O)N[C@@H](CN)C(=O)N[C@@H](CCC(C)C)C(N)=O

IC50, kinase assay PKB (protein kinase B (PKB) [2]): 0.8 µM
Binder: Lithocholoyl-GRPR[Nva]Y[Dap][hLeu]-NH2 [PTR 6218]

IC50, in vitro kinase assay PKB (protein kinase B (PKB) [1]): 0.3 µM
B7: PTR 6400 (peptide)
peptide: Cholesteryloxycarbonyl-[dK][dK][dK]KPR[Nva]Y[Dap][hLeu]-NH2
SMILES: CCC[C@H](NC(=O)[C@H](CCCNC(=N)N)NC(=O)[C@@H]1CCCN1C(=O)[C@H](CCCCN)NC(=O)[C@@H](CCCCN)NC(=O)[C@@H](CCCCN)NC(=O)[C@@H](CCCCN)NC(=O)O[C@H]1CC[C@@]2(C)C(=CC[C@H]3[C@@H]4CC[C@H]([C@H](C)CCCC(C)C)[C@@]4(C)CC[C@@H]32)C1)C(=O)N[C@@H](Cc1ccc(O)cc1)C(=O)N[C@@H](CN)C(=O)N[C@@H](CCC(C)C)C(N)=O

IC50, kinase assay PKB (protein kinase B (PKB) [2]): 2 µM
Binder: VitB6-RPR[Nva]YA[hLeu]-NH2 [PTR 6228]

IC50, in vitro kinase assay PKB (protein kinase B (PKB) [1]): 0.3 µM
B8: PTR 6398 (peptide)
peptide: Cholesteryloxycarbonyl-[dK][dK][dK][Orn]PR[Nva]Y[Dap][hLeu]-NH2
SMILES: CCC[C@H](NC(=O)[C@H](CCCNC(=N)N)NC(=O)[C@@H]1CCCN1C(=O)[C@H](CCCN)NC(=O)[C@@H](CCCCN)NC(=O)[C@@H](CCCCN)NC(=O)[C@@H](CCCCN)NC(=O)O[C@H]1CC[C@@]2(C)C(=CC[C@H]3[C@@H]4CC[C@H]([C@H](C)CCCC(C)C)[C@@]4(C)CC[C@@H]32)C1)C(=O)N[C@@H](Cc1ccc(O)cc1)C(=O)N[C@@H](CN)C(=O)N[C@@H](CCC(C)C)C(N)=O

IC50, kinase assay PKA (protein kinase A (PKA)): > 10 µM | IC50, kinase assay PKB (protein kinase B (PKB) [2]): 3 µM
Binder: {S‑carbofluorescin}-RPR[Nva]Y[Dap][hLeu]-NH2 [PTR 6182]
